Measured values: US20180155433A1 (GAMAMABS PHARMA, published 2018)

Columns and labels:
[1] = molecular target: T1, human HER3-Fc (recombinant HER3 extracellular domain Fc fusion, R&D systems) (human, UniProt P21860 20-643); test: ELISA, HER3-Fc coated at 50 ng per well, GMB301 from 3.3 nM to 6.5 pM, HRP anti-human F(ab')2 detection
T1 construct: extracellular domain; Bought reagent (R&D Systems); Coated on plates at 50 ng per well; not shown: Fc part of the bought fusion (R&D Systems)
Experimental: GMB301 was incubated for 1 hour at 37° C. in Maxisorp® plates (Nunc) coated wells with 50 ng human HER3-Fc (recombinant HER3 extracellular domain Fc fusion, R&D systems).
Bound GMB301 antibody were detected by a conjugated HRP-F(ab′)2 goat anti human IgG F(ab′)2 specific (Interchim). After two hours at 37° C. and three washes with PBS-Tween₂₀ 0.5%, TMB (3,3,5,5-tetramethylbenzidine, Sigma) was used as substrate for detecting HRP activity and 1M H₂SO₄ was added to stop the reaction and plate was read at 450 nm.

[2] = molecular target: T2, Recombinant human HER3 extracellular domain (ECD) (human, UniProt P21860 20-643); test: ELISA, recombinant human HER3 ECD coated at 50 ng/well, antibody from 3 nM to 6.5 pM, four-parameter fit
T2 construct: extracellular domain; Bought from R&D Systems; also called recombinant human HER3 ECD; HER3 receptor
Experimental: Nunc Maxisorp plates were coated with 50 ng/well recombinant human HER3 ECD for 16 hours at 4° C. and were blocked with 2% BSA in PBS. Anti-HER3 antibodies GMB301 and H4B-121-emb were serially diluted from 0.5 μg/ml to 1 ng/ml (3 nM to 6.5 pM) and incubated 1 hour at 37° C.

T2 sequence (P21860 20-643): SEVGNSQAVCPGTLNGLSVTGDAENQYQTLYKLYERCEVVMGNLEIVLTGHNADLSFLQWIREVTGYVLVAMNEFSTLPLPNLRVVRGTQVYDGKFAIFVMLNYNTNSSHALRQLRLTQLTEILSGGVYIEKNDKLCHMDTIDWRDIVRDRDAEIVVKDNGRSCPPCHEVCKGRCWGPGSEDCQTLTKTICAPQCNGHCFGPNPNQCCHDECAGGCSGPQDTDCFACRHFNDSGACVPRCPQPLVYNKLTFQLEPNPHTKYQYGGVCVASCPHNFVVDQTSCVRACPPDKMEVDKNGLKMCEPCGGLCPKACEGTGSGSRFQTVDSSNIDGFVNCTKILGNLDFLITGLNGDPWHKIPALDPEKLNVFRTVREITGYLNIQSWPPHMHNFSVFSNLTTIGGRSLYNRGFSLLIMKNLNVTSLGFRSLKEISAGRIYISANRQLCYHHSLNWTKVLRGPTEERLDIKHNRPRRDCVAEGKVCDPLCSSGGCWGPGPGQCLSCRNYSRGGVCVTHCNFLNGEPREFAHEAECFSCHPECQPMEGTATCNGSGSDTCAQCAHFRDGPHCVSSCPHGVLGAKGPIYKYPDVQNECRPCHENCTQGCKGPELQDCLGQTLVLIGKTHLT
T1 sequence (P21860 20-643): as above

EC50 [1]: 190 pM
EC50 [2]: 190 pM
B1: GMB301 (chimeric low-fucose anti-human HER3 antibody) (antibody, human IgG1, kappa, V domains shown)
VH: EVKLVESGGGLVQPGGSLKLSCAASGFTFSSYTMSWVRQTPEKRLEWVAYISDGGGVTYYPDTIKGRFTISRDNAKNTLYLQMSSLKSEDTAMYYCARDRYGLFAYWGQGTLVTVSA
VL: DIVMTQSQKFMSTSVGDRVSITCKASQNVGIAVAWYQQKPGQSPKLLIYSASNRYTGVPDRFTGSGSGTDFTLTISNMQSEDLADYFCQQYSNYPYTFGGGTKLEIKR
modifications: low-fucose N-glycan (produced in YB2/0 cells)
notes: also called mAb GMB301; low-fucose chimerized antibody GMB301
